Laboratory results published in publication PMC6273018, “Effects of Flavonoids in Lysimachia clethroides Duby on the Activities of Cytochrome P450 CYP2E1 and CYP3A4 in Rat Liver Microsomes” (Molecules, 2016).

Substrate: O=[N+]([O-])c1ccc(O)cc1
Test: cells, lysate or membranes named
Settings: other: Lineweaver-Burk plot; rat liver microsomes; pH 7.4
Description: The rats were fasted for 12 h with free access to water and then sacrificed by cervical dislocation. The liver was removed promptly and washed with ice-cold physiological saline solution to yellowish brown. […] The liver homogenate solution was centrifuged at 4 °C for 20 min at 12,000 r·min^−1 and supernatant fraction was reserved. The supernatant per millilitre was added with 0.1 mL CaCl2 (88 mM), gently shaken and kept at 0 to 4 °C for 5 min. The mixed solution was transferred to centrifuge tubes and centrifuged at 4 °C for 30 min at 15,000 r·min^−1. […] Protein concentration of the microsomes was determined by the method of Bradford. […]
The apparent Km (Michaelis constant) value was calculated according to the Michaelis-Menten equation and Lineweaver-Burk plot.
Group 1 (normal control) was added with phosphate buffer, group 2 (flavonoids reagent group) were added with flavonoids, and group 3 was given clomethiazole as positive control. […] The concentrations of probe substrate metabolites were calculated from the standard curves. The percentage of inhibition was calculated using the formula: %Inhibition = ((A0 − A1)/A0) × 100%, in which A0 was the concentration of probe substrate metabolite of group 1 and A1 was the concentration of probe substrate metabolite of group 2 and 3. The IC50 values were calculated based on the concentration-effect linear regression curve.

B1: CYP2E1 (Rattus norvegicus) (protein)
chain: MAVLGITIALLVWVATLLVISIWKQIYNSWNLPPGPFPLPILGNIFQLDLKDIPKSFTKLAKRFGPVFTLHLGSRRIVVLHGYKAVKEVLLNHKNEFSGRGDIPVFQEYKNKGIIFNNGPTWKDVRRFSLSILRDWGMGKQGNEARIQREAQFLVEELKKTKGQPFDPTFLIGCAPCNVIADILFNKRFDYNDKKCLRLMSLFNENFYLLSTPWIQLYNNFADYLRYLPGSHRKIMKNVSEIKQYTLEKAKEHLQSLDINCARDVTDCLLIEMEKEKHSQEPMYTMENVSVTLADLFFAGTETTSTTLRYGLLILMKYPEIEEKLHEEIDRVIGPSRVPAVRDRLDMPYMDAVVHEIQRFINLVPSNLPHEATRDTVFQGYVIPKGTVVIPTLDSLLYDSHEFPDPEKFKPEHFLNENGKFKYSDYFKAFSAGKRVCVGEGLARMELFLLLSAILQHFNLKSLVDPKDIDLSPVTVGFGSIPPQFKLCVIPRS
- Km: 90.92 µM
